Measurements taken from patent US20090018029A1.

Columns and labels:
hIFN receptor = assay: BIAcore biosensor; orientation not stated
[1] = biological target: human growth hormone receptor on IM-9 cells (human) (UniProt P10912); assay: cell-based or functional assay
UniProt P10912, sequence (P10912 19-638): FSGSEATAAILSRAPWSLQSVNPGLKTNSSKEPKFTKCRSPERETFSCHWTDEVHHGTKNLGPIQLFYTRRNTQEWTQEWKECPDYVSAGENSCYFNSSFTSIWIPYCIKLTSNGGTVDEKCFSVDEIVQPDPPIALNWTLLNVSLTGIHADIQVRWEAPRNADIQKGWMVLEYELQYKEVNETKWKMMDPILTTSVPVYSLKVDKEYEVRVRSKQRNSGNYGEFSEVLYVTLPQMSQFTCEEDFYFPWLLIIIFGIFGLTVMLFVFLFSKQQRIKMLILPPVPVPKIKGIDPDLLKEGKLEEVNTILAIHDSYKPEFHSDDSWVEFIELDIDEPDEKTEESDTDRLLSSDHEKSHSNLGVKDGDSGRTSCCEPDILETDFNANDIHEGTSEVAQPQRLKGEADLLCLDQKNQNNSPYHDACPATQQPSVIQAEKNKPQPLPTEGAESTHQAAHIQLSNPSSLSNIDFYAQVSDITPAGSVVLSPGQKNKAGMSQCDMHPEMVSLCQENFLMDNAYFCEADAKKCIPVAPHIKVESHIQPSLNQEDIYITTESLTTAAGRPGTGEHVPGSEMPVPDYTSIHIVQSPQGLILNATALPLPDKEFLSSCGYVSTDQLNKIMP

Kd (hIFN receptor) [nM]	EC50 of STAT5 phosphorylation in IM-9 cells (phospho-STAT5 MFI, flow cytometry) [1] [nM]	Substance
12	–	6His-E96pAF IFNα2A (from UniProt P01563 24-188) (ligand)
5	–	6His-E107pAF IFNα2A (from UniProt P01563 24-188) (ligand)
19	–	6His-E113pAF IFNα2A (from UniProt P01563 24-188) (ligand)
3.5	–	6His-E159pAF IFNα2A (from UniProt P01563 24-188) (ligand)
8	–	6His-F27pAF IFNα2A (from UniProt P01563 24-188) (ligand)
42	–	6His-F38S IFNα2A (from UniProt P01563 24-188) (ligand)
12	–	6His-G37pAF IFNα2A (from UniProt P01563 24-188) (ligand)
4	–	6His-H34pAF IFNα2A (from UniProt P01563 24-188) (ligand)
5	–	6His-I24pAF IFNα2A (from UniProt P01563 24-188) (ligand)
10	–	6His-I100pAF IFNα2A (from UniProt P01563 24-188) (ligand)
6	–	6His-IFNα2A (from UniProt P01563 24-188) (ligand)
52	–	6His-K31pAF IFNα2A (from UniProt P01563 24-188) (ligand)
10	–	6His-K49pAF IFNα2A (from UniProt P01563 24-188) (ligand)
10	–	6His-K134pAF IFNα2A (from UniProt P01563 24-188) (ligand)
13	–	6His-L110pAF IFNα2A (from UniProt P01563 24-188) (ligand)
8	–	6His-L117pAF IFNα2A (from UniProt P01563 24-188) (ligand)
17	–	6His-P39pAF IFNα2A (from UniProt P01563 24-188) (ligand)
17	–	6His-P109pAF IFNα2A (from UniProt P01563 24-188) (ligand)
17	–	6His-Q48pAF IFNα2A (from UniProt P01563 24-188) (ligand)
8	–	6His-R12pAF IFNα2A (from UniProt P01563 24-188) (ligand)
4	–	6His-R120pAF IFNα2A (from UniProt P01563 24-188) (ligand)
19	–	6His-R125pAF IFNα2A (from UniProt P01563 24-188) (ligand)
75	–	6His-R149pAF IFNα2A (from UniProt P01563 24-188) (ligand)
8	–	6His-T106pAF IFNα2A (from UniProt P01563 24-188) (ligand)
9	–	6His-Y89pAF IFNα2A (from UniProt P01563 24-188) (ligand)
300	–	6His-Y122S IFNα2A (from UniProt P01563 24-188) (ligand)
9	–	C1S E107pAF IFNα2A (from UniProt P01563 24-188) (ligand)
11	–	C1S IFNa2A (from UniProt P01563 24-188) (ligand)
11	–	Sigma IFNαA (from UniProt P01563 24-188) (ligand)
–	> 200000	rat growth hormone, wild type (from UniProt P01244 27-216) (ligand)
